Data as given in the DeepSol protein solubility set.

Experiment: soluble on expression in E. coli; label from the status in PepcDB or PDB records

Sequence	soluble on expression in E. coli
MSLNVTVHGVPVGSLTREEARAKIESHFAPFLAQPVMLTYSGRTWTPTLAELGAELAIDEAVDKAVAVGRGHDLFTNLQQIGAVWQRGLELPLHLSIDQDALQRYLLDRVAEVERPAVDARLVLHGTTVRVEPSAFGRQVLVNDTLHEIVAALQDLNPDTIALRTRTLEPALRDDAAIVAQDQIAALLAGPITLLIDDRPFVWSLDELARMVRVERIPDPAGDRLVVSIDHELVRARIREIGDATEVKGTYPRLNWNDGRLEIFQEGKPGRRIDEDQVFAAVLDALTKPAEQRTVTVAFREIPPPITAANLDQLGITTLIGVGRSDFTGSAAYRVTNIQAGMRLLHGVLIAPGEEFSFNQTIGRIDRSNGFVEGYAIIQNRTQLEWGGGICQDSTTMFRAAFWAGLPITERWGHSFYISWYDRYAFGPYGDGPGMDATIFTGGPDLKFLNDTGGWLLIQTLVDTHRHLAEVRLYGPDTGRKVLLEGPIITNRTEGHHHHHH	soluble
MSLNWKQLISAKRFGMEEFHEERQENRSEFQRDYDRLIFSAPFRRLQNKTQVFPLPGSIFVHNRLTHSLEVSCVGRSLGNDVAKAILERQPELESSFLPEIGSIVSAACLAHDLGNPPFGHSGERAISTFFSEGKGQRLQEKQPDGEQLSPMEWEDLTHFEGNANAFRILTHQFEGRRRGGFVLTYSTLASIVKYPFSSSLAGKKSKFGFFVSEEESYRKIATELGLIQLSEQPLKYARHPLVYLVEAADDICYQMMDIEDAHKLKIITTDETKELLMAFFSEDRQSRLRSTFQIVNDINEQIAYLRSSVIGLLVRECTRVFLEHEQEILAGTFEGALIKHIAEGPAAAYNHCAEISLKRIYRSQDVLDIELAGFRIISTLLELMVDAVTLPGKEKAYSELLTNRVSDQYNIKSPVLYERIQAVLDYISGMTDVFALDLYRKINGNSLPAEGHHHHHH	soluble
MSLNYRHAFHAGNFADLHKHAILLAMLSALQEKSPALAVIDTHAGAGGYDLAGEMARRSGEAQAGIFRLKAAADAPAVFQPLLNAITQMNGGKDGDLYPGSPRLMARALRGADRYVGCELRDDDADLLRKTLAPCANARALQADGFDTAVKDAGKGGRAFIVIDPPFERPDDYDRIVATTRAVLARAPDAALAIWLPIKDLETFDAFLRAMETVTSDLLVAELRLRPLTDPMKMNGCAMVMIGAPPSVEDAAVAAGDWIATRLGEPGGRSRVWRTEGHHHHHH	soluble
MSLPAPQDPRNLPIRQQMEALIRRKQAEITQGLESIDTVKFHADTWTRGNDGGGGTSMVIQDGTTFEKGGVNVSVVYGQLSPAAVSAMKADHKNLRLPEDPKTGLPVTDGVKFFACGLSMVIHPVNPHAPTTHLNYRYFETWNQDGTPQTWWFGGGADLTPSYLYEEDGQLFHQLHKDALDKHDTALYPRFKKWCDEYFYITHRKETRGIGGIFFDDYDERDPQEILNMVEDCFDAFLPSYLTIVKRRKDMPYTKEEQQWQAIRRGRYVEFNLIYDRGTQFGLRTPGSRVESILMSLPEHASWLYNHHPAPGSREAKLLEVTTKPREWVKEGHHHHHH	soluble
MSLPITLDKKLPAVDILKSENIFVMDDKRAIHQDIRPMSILILNLMPTKVATETQLLRLLANTPLQLSVDFLYMTSHHSKTTQAEHMKTFYKTFKDIKDNYYDGLIITGAPVETMPFEKVDYWEELCQVFQWSKTHVYSTLHLCWGAQAGLYYRYSVDKVQMTDKLSGIYLQKVNEQLSPLMRGFDDCFLSPHSRYTEVLLKDINNKTNLEILASGEKVGLSILASRDMREVYSFGHLEYDRETLDNEYKRDLKAGKSPKIPENYYQDDDVTTHPIMRWNLAAATFFSNWINYAVYQETPYRLEELEKDISFYGYLEGHHHHHH	soluble
MSLPKEEILTGPAVIKIVSTYMGPEHVELVQKALTYAEKAHEGQVRQSGEPYIIHPIQVAGILAELHMDPHTVATGFLHDVVEDTDVTLDDLKEEFGEDIAMLVDGVTKLGKIKYKSHEEQLAENHRKMLLAMAQDLRVIMVKLADRLHNMRTLKHLREDKQRRIAQETLEIYAPLAHRLGISRIKWELEDTALRYINPNQYYRIVNLMQSKRDEREAYVAEAVEDIRLATEDLEIYAEIYGRPKHIYSIYRKMKDQKKQFNEIYDLLAIRVIVDSIKDCYAVLGAIHTRWTPMPGRFKDYIAMPKANMYQSIHTTVIGPKGNPVEVQIRTHEMHQIAEFGVAAHWAYKEGKAEKIETDELTKQVDWFHEIIELQDESYDASEFMQGVKEDIFSDKVYVFTPSGDVTELPKGSGPLDFAYSIHTEIGNKTTGAKVNGKMVQLDYVLKNGDIIEVLTSPNSFGPSRDWLKMVKTSKAKNKIKRFFKEQDREDNIIKGHDAVIKYMTEIGFTPKEFLTKNKMAEVLDKFKFQTEDDLFAAVGYGEVSAQVVCNRLTEKERREQELERQRQEAEELLNQPAKKESEKMKVRHEGGIVIQGVDNLLIRLSRCCNPVPGDEIVGYITKGRGVSIHRADCPNVQHQEELAQRLIEVEWEDTEHSRKEYAADLEIYGYDRSGLLSDVLQVISSMTKNLVGVEARPSKDKMAQIHVTVKIQNLSHLKTIVDKIKSVPDVYSVRRTNGEGHHHHHH	soluble
MSLPNNEKITRLQQQEKNTQQTVTVAKNKAANLAKFQKEVEATTLDFETQAALLPKEKEIPKLLKDISALGSNTGLDFISFKPLANRPKDFYAEIPISIQVRGPYHNVGSFFDQINKLERIVSVKSVKMTSPKKEDGEMLLTSNCQLVTYQFTNIELPKEGHHHHHH	soluble
MSLPSAQAPSLLNPTDDFAALGNIAWLWMNSPMHRDWPVHLLARNTLAPIQLGQYILLRCNDVPVAYCSWALMDADTELSYVMAPSSLGGNAWNCGDRLWIIDWIAPFSRDDNRALRRALAERHPDSVGRSLRVRRGGDTARVKEYRGRALDAAAARAQLDRYHAELIAGLRASNGGYAPREGHHHHHH	not soluble
MSLPWLHRETARSFGGAGSTAGYEQVTAYTLTGQLQSRHLNLPQLDCDYDWNDNGQLIRISGPQESREYRYSDTGRLTGVHTTAANLDIDIPYATDPAGNRLPDPELHPDSTLTAWPDNRIAEDAHYVYRYDEYGRLTEKTDRIPEGVIRMHDERTHHYHYDNQHRLVFYTRIQYGEPLVESRYLYDPLGRRTGKRVWRRERDLTGWMSLSRKPEVTWYGWDGDRLTTVQTGTTRIQTVYRPGSFTPLIRIETENGEREKAQRRSLAEKLQQEGSEDGHGVVFPAELVRMLDRLEEEIRADRVSSESRAWLAQCGLTVEQLEKQVEPEYTPARTLHLYHCDHRGLPLALISEDGNTAWSAEYDEWGNQLNEENPHHLHQPYRLPGQQHDEESGLYYNRHRYYDPLQGRYITPDPIGLRGGWNMYQYPLNPIQVIDPMGLDAIENMTSGGLIYAVSGVPGLIVANSITNSAYQFGYDMDAIVGGAHNGAADAMRYCYLMCRMTKTEGHHHHHH	soluble
MSLQAAKEVCLWPLHEREPDTTWSRGPLVLLGDAGHPMRPHMAQGAAMAIEDAAVLVRCLRAYGAAAGAAYDHYQQTRAERVAQVQKVSSENSWMRTPTDPEWVFSYDALLAPEGHHHHHH	not soluble
MSLQEDPVVMRINGKDIPRSEFEYSYRRHADGNGMKLSPKEYAEFFIQSKLKVEAARAAGLDTTSAFRKQQEAYRTNLLRSYLLDDQEMDGNARILYQKMKENVRGGQVQIQQIYKYLPQTITSRHLQEEQARMDSIYQVIQNQPGVDFARLVDRFSDDKRCRWIESLQTTSEFEEAAFSLAKGEISKPFFTPEGIHILKVIDRKEVPAYEVVSDSLLNRLRRQPLDKGTEAIVEQLKKEYQYIPNMESLEEVLQKGGTERTLFTIDGQAYTGEMFKRFAASHPQAVKRQLNGFIAKSLLDYESQHMERKHPELRYTLQEYAEKCLAEEIVHQKVDLPAVNDRVGLATYFKFHSSDYRWEHPRYKGVVLHCADKKTAKQAKKLLKKVPENEWEDMLRKTFNTSGAEIIKIEQGVFADGDNKYIDKLVFKKGAFDPVVSYPFTIAVGKKQKGPEDYREVIDQVRKDYRNYLNAYWERELRESGKVEINQEVLKTVNNEGHHHHHH	soluble
